Assay results reported in patent US20210047398A1, “ASPROSIN, A FAST-INDUCED GLUCOGENIC PROTEIN HORMONE” (Baylor College of Medicine, priority 2016, published 2021).

Columns and labels:
[1] = system: mouse primary hepatocytes
Experimental: (§1) Cell Culture. Primary mouse hepatocytes were isolated from 8- to 12-week-old WT mice using standard methodology. […] The cells were treated with 50 nM recombinant asprosin or GFP for 10 minutes for cAMP and PKA assays and for 2 hours for the in vitro glucose production assay. Cells were pretreated with various inhibitors for 1 hour prior to treatment with asprosin, GFP, Glucagon or Epinephrine. cAMP was measured from cell lysates using the cAMP direct immunoassay kit from Cell Biolabs. PKA activity was measured from cell lysates using the PKA kinase activity kit from Enzo Lifesciences, Inc. Media glucose content was measured using the Glucose Colorimetric Assay Kit from Biovision. Results were normalized to protein content.

[2] = Plasma His-tag sandwich ELISA after subcutaneous injection; assay type: in vivo, mice; conditions: 30 μg subcutaneous injection
Experimental: FIGS. 22A-22E: Asprosin traffics to the liver in vivo and binds the hepatocyte surface with high affinity in a saturable and competitive manner. (FIG. 22A) SPECT scans were performed 15 minutes after intravenous injection with 150 μCi I125-asprosin, boiled I125-asprosin, or free I125 in live, anesthetized mice previously injected with bismuth as a hepatic contrast agent. 3 representative images are shown in axial and coronal planes. (FIG. 22B) Liver asprosin accumulation was measured as liver photon intensity from mice in (FIG. 22A). (FIG. 22C) Tissue radioactivity (normalized to tissue weight) was measured using a γ-counter after sacrificing mice from (FIG. 22A), 45 minutes following injection (n=4 mice). (FIG. 22D) Sandwich ELISA was used to measure plasma His tag (recombinant asprosin contains an N-terminal His tag) in WT mice before injection and 15, 30, 60 and 120 minutes after injection with 30 μg recombinant asprosin. The time taken for peak signal to fall to half-maximal level is indicated by the arrow. […] Specific binding (shown in red) was calculated as the difference between the two curves. Data are represented as the mean±SEM.
Sandwich ELISA and Western Blot. […] Increasing amounts of recombinant asprosin (which contains an N-terminal His tag) were used to generate a standard curve for both assays. EDTA-plasma was used for plasma sandwich ELISAs and serum-free DMEM concentrated using Vivaspin protein concentrator spin columns by GE Life Sciences Inc. was used for media sandwich ELISAs.

[3] = system: mouse primary hepatocytes; assay: In vitro glucose production assay (media glucose accumulation); conditions: 2 hours, 0-1100 nM recombinant asprosin
Experimental: as §1

[4] = Food intake, energy expenditure and body composition after asprosin gain-of-function; assay type: in vivo, mice
Experimental: Mouse food intake and energy expenditure—Food intake and energy expenditure were measured using the CLAMS System (Comprehensive Lab Animal Monitoring System, Columbus Instruments). Animals were acclimatized in the recording chambers for 48-72 hours, and measurements were taken subsequently for 24 hours during the light cycle and dark cycle. Mice received food and water ad libitum, or after an overnight fast where indicated. Oxygen consumption and food intake were recorded.
As previously described (Yan et al., 2016), male mice were anesthetized with inhaled isoflurane and stainless steel cannulas (Plastics One) were inserted into the lateral ventricles (0.34 mm caudal and 1 mm lateral from bregma; depth, 2.3 mm). […] These mice received 10 ng GFP ([…]) twice a day for 3 continuous days, and 10 ng asprosin (in […]) the last day. The BioDAQ food intake monitoring system (Research Diets, Inc) was used to monitor the food intake, and the food intake from the last GFP injection and asprosin were compared.
Mouse body composition—Body composition was analyzed using an ECHO-MRI system (Echo medical systems, Texas) or DEXA scans where indicated. Lean mass, fat mass, and overall body weight were calculated using the manufacturer-provided software.

[5] = system: hepatic glucose production; assay: Hyperinsulinemic-euglycemic clamp; assay type: in vivo, mice
Experimental: Animals. […] MgR heterozygous mice were obtained from Jackson labs, and bred to obtain male MgR homozygous mice and WT littermates. 5-week-old male Ob/Ob mice were obtained from Jackson labs. […] For diet induced obesity studies, mice were placed on the adjusted calories diet providing 60% of calories from fat by Harlan-Teklad for 12 weeks. […] Mice were exposed to 30 μg recombinant His-tagged asprosin or recombinant Green Fluorescent Protein (GFP) daily for 10 days via subcutaneous injection. Mice were sacrificed and plasma and various organs were isolated 10 days after virus or peptide injection. For single dose injections, the same protocol was followed as that for daily injections, followed by collection of plasma at the indicated times via tail bleeds for insulin and glucose measurement. Insulin and glucose tolerance tests (ITT and GTT) were performed using standard procedures. […] For immunologic sequestration experiments, mice were injected intra-peritoneally with a 500 μg dose in saline of a custom-built (Thermo Scientific Inc.) anti-asprosin mouse monoclonal antibody directed against amino acids 106-134 (human profibrillin amino acids 2837-2865) or an equivalent dose of isotype matched IgG (Southern Biotech, Inc.). […] The Baylor College of Medicine Institutional Animal Care and Utilization Committee approved all experiments.

[6] = daily subcutaneous doses for 10 days

B1: recombinant asprosin: 146 amino acid E. coli expressed fusion protein: 6 amino acid N-terminal His tag and 140 amino acid wild type asprosin (FBN1 2732-2871) (protein)
chain: HHHHHHSTNETDASNIEDQSETEANVSLASWDVEKTAIFAFNISHVSNKVRILELLPALTTLTNHNRYLIESGNEDGFFKINQKEGISYLHFTKKKPVAGTYSLQISSTPLYKKKELNQLEDKYDKDYLSGELGDNLKMKIQVLLH
hepatocyte PKA activity, dose response [1]: increased in a dose responsive manner | plasma half-life ([2]; His-tag ELISA): approximately 20 minutes | peak level in plasma ([2]; mice): 50 nM | time of peak level after injection ([2]; mice): 20 min | media glucose concentration [3]: increase in glucose concentration in a dose-dependent manner | orexigenic effect in mice with AgRP neuron ablation ([4]; IP injection, 24 hours cumulative food intake): completely eliminated | adiposity (fat mass) [4, 6]: increase in adiposity | energy expenditure [4, 6]: no change in energy expenditure | food intake [4, 6]: expected hyperphagia | food intake after intracerebroventricular (ICV) injection ([4]; dark phase, 10 ng ICV): orexigenic effect | food intake (FIG. 17) ([4]; mice injected with asprosin): hyperphagia | hypophagia of NPS mice ([4]; single subcutaneous dose): sufficient to completely rescue the hypophagia | latent phase prior to orexigenic effect ([4]; single subcutaneous dose): latent phase of several hours | food intake over the next 24-hr ([4]; single subcutaneous dose, C57Bl/6 mice, vs GFP): greater food intake | hepatic glucose production ([5]; elevated plasma asprosin, 10 days after FBN1 adenovirus (FIG. 21C)): increased hepatic glucose production | ability of peripheral organs to take up glucose in response to insulin ([5]; glucose disposal rate, FIG. 21D): no impact
